B2: CsgG with a C-terminal 6×His tag (natural protein, E. coli, UniProt P0AEA2 16-277, looked up)
chain: CLTAPPKEAARPTLMPRAQSYKDLTHLPAPTGKIFVSVYNIQDETGQFKPYPASNFSTAVPQSATAMLVTALKDSRWFIPLERQGLQNLLNERKIIRAAQENGTVAINNRIPLQSLTAANIMVEGSIIGYESNVKSGGVGARYFGIGADTQYQLDQIAVNLRVVNVSTGEILSSVNTSKTILSYEVQAGVFRFIDYQRLLEGEVGYTSNEPVMLCLMSAIETGVIFLINDGIDRGLWDLQNKAERQNDILVKYRHMSVPPES
notes: CsgG, E. coli K12 MG1655; the full-length csgG gene was expressed and the protein purified from outer membranes; the structure holds residues 16-272 with the C-terminal 5 residues invisible (so 16-277); numbers count on the full-length precursor; also called CsgGHis; C-terminally His-tagged CsgG; not shown: His6, C-terminal, kept

Experiments:
[1] = biological target: the molecule itself; assay: cryo-EM structure; chymotrypsin-digested CsgG-CsgF_(20–59) complex in 20 mM Tris-HCl pH 8.0, 150 mM NaCl, 0.06% DDM; filaments on the grid; maps at 2.9 Å (head-to-head, D9) and 3.2 Å (head-to-tail, C9)
[2] = biological target: the molecule itself; assay: cryo-EM structure; full-length CsgG-CsgF complex, co-expressed and co-purified in DDM; map at 3.6 Å
[3] = biological target: B2; assay: pull-down; GST fusions or GST (approximately 0.1 mg) immobilised on glutathione sepharose, approximately 0.2 mg CsgG added, 1 hour at 4°C; washed with 20 mM Tris-HCl pH 7.5, 150 mM NaCl, 5% glycerol, 0.1% DDM; SDS-PAGE and anti-His western blot; details: both partners purified

B1: chymotrypsin-digested CsgG (residues 47–252) of the CsgG-CsgF_(20–59) complex (domain or fragment, E. coli, UniProt P0AEA2 47-252, looked up)
chain: GKIFVSVYNIQDETGQFKPYPASNFSTAVPQSATAMLVTALKDSRWFIPLERQGLQNLLNERKIIRAAQENGTVAINNRIPLQSLTAANIMVEGSIIGYESNVKSGGVGARYFGIGADTQYQLDQIAVNLRVVNVSTGEILSSVNTSKTILSYEVQAGVFRFIDYQRLLEGEVGYTSNEPVMLCLMSAIETGVIFLINDGIDRGLW
notes: numbers count on the full-length precursor; The His tag goes with the C-terminal residues that chymotrypsin removed; source: E. coli BL21 (DE3), co-expressed with CsgF, purified (Ni-NTA), chymotrypsin proteolysis, size exclusion chromatography; not shown: His6, C-terminal, cleaved
**Q.** With B1 as the binder, how does the “stoichiometry N” value [1] read?
**A.** The value was 9.

**Q.** With B2 as the binder, how does the “stoichiometry N” value [2] read?
**A.** The value was 9.

B3: CsgF_(20–53)-GST (domain or fragment, E. coli, UniProt P0AE98 20-53, looked up)
chain: GTMTFQFRNPNFGGNPNNGAFLLNSAQAQNSYKD
notes: CsgF, E. coli, residues 20-53 (N-terminus of the mature CsgF); numbers count on the full-length precursor; also called CsgF_(20–53) fused to GST C-terminally; source: E. coli BL21 (DE3), purified; not shown: GST, C-terminal, kept
**Q.** Does B3 bind [3]?
**A.** Result: binds

From PMC7304575, “Cryo-EM structure of the nonameric CsgG-CsgF complex and its implications for controlling curli biogenesis in Enterobacteriaceae” (PLoS Biology, 2020)
